According to patent US8591913B2, “Methods of decreasing adipose tissue” (Toru Miyazaki, priority 2009, dated 2013):

Tests used:
[1] = biological target: T1, FAS (Mus musculus, UniProt P19096); assay: FAS enzyme activity in lysates of loaded 3T3-L1 cells (malonyl-CoA consumption); type: cell-based; conditions: mouse AIM 5 μg/mL
T1 construct: cell lysates were prepared, and the enzyme activity of FAS was measured; endogenous in cells; host or cells: 3T3-L1 cells (differentiating or differentiated)
Experimental: Whether AIM affected an enzyme activity of FAS or not was examined.
In addition, as a schedule (f) similar to the above-mentioned schedule (e), AIM was loaded for 4 days (day 8 to day 12) after the 3T3-L1 cells differentiated, subsequently the cells were collected on the 10th day (day 12) after the initiation of the differentiation induction, cell lysates were prepared, and the enzyme activity of FAS was measured. The enzyme activity of FAS was measured based on a consumption amount of malonyl-CoA.
In addition, using a FAS inhibitor (C75) in place of AIM, the FAS inhibitor at a concentration of 25 μM was loaded according to the schedules (d) and (f), and as was the case with the above-mentioned AIM, the cells were collected on the 2nd day (day 4: schedule (d)) and 10th day (day 12: schedule (f)) after the initiation of the differentiation induction, and the enzyme activity of FAS was measured.
Further, for comparison, the cells cultured without loading AIM in the above-mentioned schedule (a) were also collected at times of the 2nd day (day 4) and 10th day (day 12) after the initiation of the differentiation induction, and the enzyme activity of FAS was measured.
FIG. 11B and FIG. 11C illustrate the results of measuring the FAS enzyme activity (Fatty acid synthase activity) (nmol NADPH/min/mg protein). FIG. 11B illustrates the results obtained on the 2nd day (day 4) after the initiation of the differentiation induction in the case of loading no AIM according to the schedule (a) (None), the case of loading AIM according to the schedule (d) (AIM (5 μg/mL)), and the case of loading the FAS inhibitor according to the schedule (d) (C75 (25 μM)). FIG. 11C illustrates the results obtained on the 10th day (day 12) after the initiation of the differentiation induction in the case of loading no AIM according to the schedule (a) (None), the case of loading AIM according to the schedule (f) (AIM (5 μg/mL)), and the case of loading the FAS inhibitor according to the schedule (f) (C75 (25 μM)).

[2] = biological target: T2, mouse CD36 (Mus musculus, UniProt Q08857); assay: Binding of AIM to CD36-overexpressing HEK293 cells (confocal microscopy); conditions: HEK293 cells overexpressing FLAG-tagged mouse CD36, cultured with mouse AIM for 3 hours
T2 construct: expressed in transfected cells; host or cells: HEK293 (called HEK293T)
Experimental: CD36 is a twice-transmembrane-type molecule, is expressed on adipocytes and macrophages, and is involved in intracellular internalization of many molecules including fatty acids, LDL, and the like. Thus, HEK293 cells in which mouse CD36 fused with a FLAG-tag at its C terminus was overexpressed were produced, and the cells were cultured with mouse AIM for 3 hours. Subsequently, the cells were collected, stained using an anti-AIM antibody and an anti-CD36 antibody, and observed under a confocal microscope.

[3] = test system: FAS domains; assay: Co-immunoprecipitation of FLAG-tagged FAS regions with HA-tagged AIM in HEK293T cells; type: binding; conditions: HA-tagged mouse AIM
Description: Further, it was attempted to map a binding region of FAS to AIM. FAS has the following distinct seven functional domains, i.e., ketoacyl synthase (KS), malonyl/acetyl transferase (MAT), dehydrase (DH), enoylreductase (ER), ketoreductase (KR), acyl carrier protein (ACP), and thioesterase (TE), as illustrated in FIG. 34A. There is a central core (CC) between the DH domain and the ER domain. It is believed that the central core has no known catalytic function and plays a structural role in stabilization of the dimer. FIG. 34A illustrates FAS dimerized through head-to-tail interaction and major functions of its respective regions.
Thus, an association of each region in FAS tagged with FLAG with AIM tagged with HA was examined by a co-precipitation study. That is, each domain from FAS tagged with FLAG at the N terminus was expressed in HEK293T cells in which mouse AIM tagged with HA was stably expressed. Then, the association of each region with AIM was examined by a co-immunoprecipitation study using an anti-FLAG antibody and an anti-HA antibody. However, AIM was not bound to an N terminal region including the KS and MAT domains (see FIG. 34A) involved in initial acyl chain assembly (i.e., condensation of acetyl group and malonyl group to 3-ketobutyryl-ACP associated with release of carbon dioxide). Therefore, it was thought that AIM affected elongation of a fatty acid chain (which involves ER and DH) and the release of synthesized palmitate (which depends on TE). Over-expression of ER or KR led to death of many cells. This caused the reduction of the signals in WB using the cell lysates of them [lower panel in FIG. 34B, lanes: ER and KR).

[4] = test system: 3T3-L1 preadipocytes; assay: Differentiation of 3T3-L1 preadipocytes into mature adipocytes, oil-red-o staining; type: cell-based, mouse; conditions: AIM concentration reduced to 1 μg/mL and 0.1 μg/mL; data not shown

T1 sequence (P19096 whole entry): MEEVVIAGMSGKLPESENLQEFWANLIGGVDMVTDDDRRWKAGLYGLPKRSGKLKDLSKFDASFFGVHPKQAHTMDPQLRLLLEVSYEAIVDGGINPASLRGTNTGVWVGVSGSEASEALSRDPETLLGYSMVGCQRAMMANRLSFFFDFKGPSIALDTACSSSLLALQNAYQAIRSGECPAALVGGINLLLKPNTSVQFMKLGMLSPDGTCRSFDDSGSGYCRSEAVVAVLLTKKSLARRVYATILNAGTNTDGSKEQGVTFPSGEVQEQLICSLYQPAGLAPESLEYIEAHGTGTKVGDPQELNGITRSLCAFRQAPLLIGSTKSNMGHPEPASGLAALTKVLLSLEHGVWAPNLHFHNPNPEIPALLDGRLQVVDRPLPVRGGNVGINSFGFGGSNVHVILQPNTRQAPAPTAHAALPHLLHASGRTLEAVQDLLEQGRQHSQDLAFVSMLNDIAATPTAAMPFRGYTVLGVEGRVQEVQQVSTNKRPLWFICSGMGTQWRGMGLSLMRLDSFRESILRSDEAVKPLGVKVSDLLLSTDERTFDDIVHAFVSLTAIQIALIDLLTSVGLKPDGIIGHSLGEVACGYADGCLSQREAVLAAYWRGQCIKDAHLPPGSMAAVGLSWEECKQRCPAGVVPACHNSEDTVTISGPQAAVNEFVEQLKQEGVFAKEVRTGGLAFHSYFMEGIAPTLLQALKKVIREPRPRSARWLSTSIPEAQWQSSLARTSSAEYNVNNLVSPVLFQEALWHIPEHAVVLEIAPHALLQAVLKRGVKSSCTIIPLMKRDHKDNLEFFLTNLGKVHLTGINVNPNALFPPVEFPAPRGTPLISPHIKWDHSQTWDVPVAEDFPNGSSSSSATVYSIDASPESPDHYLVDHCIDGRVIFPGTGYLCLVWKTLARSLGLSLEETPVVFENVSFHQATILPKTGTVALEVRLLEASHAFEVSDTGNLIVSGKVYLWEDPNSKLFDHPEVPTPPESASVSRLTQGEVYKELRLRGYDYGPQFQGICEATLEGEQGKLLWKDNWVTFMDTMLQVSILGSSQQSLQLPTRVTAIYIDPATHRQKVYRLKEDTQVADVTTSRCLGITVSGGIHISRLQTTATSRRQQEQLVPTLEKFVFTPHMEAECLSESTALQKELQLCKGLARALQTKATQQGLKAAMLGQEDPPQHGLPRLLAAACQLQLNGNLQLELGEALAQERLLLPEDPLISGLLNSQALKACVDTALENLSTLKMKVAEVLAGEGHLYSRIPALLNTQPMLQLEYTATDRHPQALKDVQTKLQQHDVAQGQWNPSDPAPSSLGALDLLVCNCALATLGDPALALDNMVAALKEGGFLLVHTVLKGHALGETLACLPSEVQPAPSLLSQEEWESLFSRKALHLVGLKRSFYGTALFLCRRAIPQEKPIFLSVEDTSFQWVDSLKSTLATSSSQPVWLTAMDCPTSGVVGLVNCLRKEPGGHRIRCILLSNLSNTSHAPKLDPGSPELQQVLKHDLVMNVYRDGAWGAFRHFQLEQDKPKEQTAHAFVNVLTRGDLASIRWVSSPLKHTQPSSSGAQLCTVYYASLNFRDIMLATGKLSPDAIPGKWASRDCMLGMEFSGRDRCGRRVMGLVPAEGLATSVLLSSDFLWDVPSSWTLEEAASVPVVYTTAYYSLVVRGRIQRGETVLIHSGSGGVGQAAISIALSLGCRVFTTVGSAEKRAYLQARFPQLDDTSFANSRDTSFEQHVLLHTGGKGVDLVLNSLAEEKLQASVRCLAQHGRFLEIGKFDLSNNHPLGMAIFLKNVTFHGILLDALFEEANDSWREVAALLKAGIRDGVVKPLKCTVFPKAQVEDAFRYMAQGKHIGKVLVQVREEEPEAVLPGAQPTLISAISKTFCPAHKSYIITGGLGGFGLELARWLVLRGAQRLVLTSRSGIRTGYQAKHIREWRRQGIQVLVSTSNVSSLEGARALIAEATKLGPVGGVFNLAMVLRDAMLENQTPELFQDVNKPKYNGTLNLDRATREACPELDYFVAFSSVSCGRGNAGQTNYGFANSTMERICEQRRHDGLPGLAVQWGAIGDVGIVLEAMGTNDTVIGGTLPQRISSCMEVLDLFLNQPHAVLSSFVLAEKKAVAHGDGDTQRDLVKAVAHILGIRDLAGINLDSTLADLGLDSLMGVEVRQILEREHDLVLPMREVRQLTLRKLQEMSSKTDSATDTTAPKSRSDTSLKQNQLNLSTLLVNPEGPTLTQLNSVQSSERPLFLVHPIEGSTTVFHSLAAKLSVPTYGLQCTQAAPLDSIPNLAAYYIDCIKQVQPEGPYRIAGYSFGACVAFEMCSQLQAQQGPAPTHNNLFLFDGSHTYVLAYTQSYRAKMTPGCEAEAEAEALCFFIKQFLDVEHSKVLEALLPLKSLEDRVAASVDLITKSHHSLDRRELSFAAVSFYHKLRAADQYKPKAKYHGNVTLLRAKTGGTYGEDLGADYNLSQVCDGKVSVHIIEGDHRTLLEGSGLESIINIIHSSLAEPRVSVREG
T2 sequence (Q08857 whole entry): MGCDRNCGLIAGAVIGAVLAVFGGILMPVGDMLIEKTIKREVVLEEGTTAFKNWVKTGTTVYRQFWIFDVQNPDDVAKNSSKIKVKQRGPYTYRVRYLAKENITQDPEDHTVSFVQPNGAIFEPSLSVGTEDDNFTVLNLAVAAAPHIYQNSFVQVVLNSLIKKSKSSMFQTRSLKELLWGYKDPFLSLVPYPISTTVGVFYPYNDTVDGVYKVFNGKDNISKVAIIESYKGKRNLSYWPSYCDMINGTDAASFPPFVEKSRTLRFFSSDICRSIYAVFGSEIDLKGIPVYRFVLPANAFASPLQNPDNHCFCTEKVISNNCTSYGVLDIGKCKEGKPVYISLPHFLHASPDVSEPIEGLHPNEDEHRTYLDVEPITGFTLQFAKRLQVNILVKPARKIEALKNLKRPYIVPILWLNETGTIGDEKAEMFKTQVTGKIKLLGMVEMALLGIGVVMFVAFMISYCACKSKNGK

B1: AIM: apoptosis inhibitor of macrophage, secretory protein with three SRCR domains; recombinant mouse and human AIM in Example 2, mouse AIM in Examples 3-16 (protein)
chain: ESPTKVQLVGGAHRCEGRVEVEHNGQWGTVCDDGWDRRDVAVVCRELNCGAVIQTPRGASYQPPASEQRVLIQGVDCNGTEDTLAQCELNYYVFDCSHEEDAGAQCENPDSDLLFIPEDVRLVDGPGHCQGRVEVLHQSQWSTVCKAGWNLQVSKVVCRQLGCGRALLTYGSCNKNTQGKGPIWMGKMSCSGQEANLRSCLLSRLENNCTHGEDTWMECEDPFELKLVGGDTPCSGRLEVLHKGSWGSVCDDNWGEKEDQVVCKQLGCGKSLHPSPKTRKIYGPGAGRIWLDDVNCSGKEQSLEFCRHRLWGYHDCTHKEDVEVICTDFDV
- enzyme activity of FAS ([1]; schedule (d): day 2 to day 4, cells collected day 4, compared with no AIM): remarkably reduced
- enzyme activity of FAS ([1]; schedule (f): day 8 to day 12, cells collected day 12, compared with no AIM): remarkably reduced
- binding of AIM to sites at which CD36 was expressed on the cells [2]: had been bound to sites
- binding to the CC (central core) domain of FAS ([3]; FLAG-tagged domain): specifically bound
- binding to the DH domain of FAS ([3]; FLAG-tagged domain): specifically bound
- binding to the ER domain of FAS ([3]; FLAG-tagged domain): specifically bound
- binding to the TE domain of FAS ([3]; FLAG-tagged domain): specifically bound
- binding to the N terminal region of FAS including the KS and MAT domains ([3]; FLAG-tagged region): not bound
- differentiation inhibitory effect by AIM [4]: reduced
